The source of these data is US20180086810A1, “T CELL RECEPTOR FUSIONS AND CONJUGATES AND METHODS OF USE THEREOF” (ALTOR BIOSCIENCE CORPORATION, priority 2000, published 2018).

For assay [1], the target named is 264 peptide/HLA-A2 complex on T2 cells (human). In words: cell-based or functional assay.
Assay [2] has as its target 149 peptide/HLA-A2 complex on T2 cells (human). In words: cell-based or functional assay.

Consider “264 scTCR-IL-2 fusion protein (from UniProt P60568 21-153)”, for which the conjugation between CTLL-2 cells and peptide-loaded T2 cells (flow cytometry, percent conjugates) in assay [1] came out at 3.25%; in assay [2] it was 0.88%.
